Data: patent US20130251708A1 (ABGENOMICS COOPERATIEF U A, published 2013)
Blank lines part the entries; values can stand above or below the binder they belong to.

Columns and labels:
[1] = molecular target: T1, human PSGL-1 on activated primary human CD4+ T cells (human, UniProt Q14242 42-412); test: flow cytometry on activated human CD4+ T cells, mean +/- SEM of 4 donors
T1 construct: also called P-selectin glycoprotein ligand-1; SELPLG
T1 sequence: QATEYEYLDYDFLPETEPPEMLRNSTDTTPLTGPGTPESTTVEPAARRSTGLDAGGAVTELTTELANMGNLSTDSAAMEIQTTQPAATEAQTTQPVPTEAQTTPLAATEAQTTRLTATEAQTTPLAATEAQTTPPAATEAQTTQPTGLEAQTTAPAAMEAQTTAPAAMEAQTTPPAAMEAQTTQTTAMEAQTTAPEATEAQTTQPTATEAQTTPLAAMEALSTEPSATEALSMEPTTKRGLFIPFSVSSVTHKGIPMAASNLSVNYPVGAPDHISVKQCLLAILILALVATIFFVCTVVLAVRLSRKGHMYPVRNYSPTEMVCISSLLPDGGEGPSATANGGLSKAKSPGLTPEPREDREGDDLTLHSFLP
Method: (§1) Anti-lysozyme IgG4, h15A7 and 15A7H antibody binding affinity to activated CD4+ T cells were determined by plotting antibody concentration versus mean fluorescence index (MFI) for each sample duplicate using XLfit (model: dose response one site, 205). EC50 values were determined for each binding curve.
Using flow cytometry, the binding of 15A7H to activated human CD4+ T-cells was determined.
(§2) EC50 values from 4 donors were used to calculate Mean+/−SEM.

[2] = molecular target: T1, human PSGL-1 on activated primary human …; test: flow cytometry on activated human CD4+ T cells, mean +/- SEM
Method: as §1, §2

EC50 [1]: 0.22 nM
B1: 15A7H (antibody, human IgG4 S228P, kappa)
heavy: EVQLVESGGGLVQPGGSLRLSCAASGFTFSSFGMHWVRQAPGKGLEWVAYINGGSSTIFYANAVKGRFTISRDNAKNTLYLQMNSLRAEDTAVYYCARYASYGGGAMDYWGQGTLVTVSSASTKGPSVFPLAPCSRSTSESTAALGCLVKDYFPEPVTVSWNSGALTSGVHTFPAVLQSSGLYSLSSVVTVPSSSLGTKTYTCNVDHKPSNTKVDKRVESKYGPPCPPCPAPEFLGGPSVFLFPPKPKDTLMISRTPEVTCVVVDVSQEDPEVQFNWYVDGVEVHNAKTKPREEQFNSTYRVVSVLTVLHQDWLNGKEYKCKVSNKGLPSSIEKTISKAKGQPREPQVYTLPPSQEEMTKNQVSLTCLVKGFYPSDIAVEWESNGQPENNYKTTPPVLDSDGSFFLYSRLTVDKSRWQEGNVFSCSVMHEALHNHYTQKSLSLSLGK
light: DIQMTQSPSSLSASVGDRVTITCRSSQSIVHNDGNTYFEWYQQKPGKAPKLLIYKVSNRFSGVPSRFSGSGSGTHFTLTISSLQPEDFATYYCFQGSYVPLTFGQGTKVEIKRTVAAPSVFIFPPSDEQLKSGTASVVCLLNNFYPREAKVQWKVDNALQSGNSQESVTEQDSKDSTYSLSSTLTLSKADYEKHKVYACEVTHQGLSSPVTKSFNRGEC
notes: Humanized IgG4 kappa antibody with the Ser228->Pro228 (EU index) hinge mutation, made in CHO-DG44 cells; also called hinge mutant of h15A7; 15A7H antibody

EC50 [2]: 0.27 nM
B2: h15A7 (antibody, human IgG4, kappa)
heavy: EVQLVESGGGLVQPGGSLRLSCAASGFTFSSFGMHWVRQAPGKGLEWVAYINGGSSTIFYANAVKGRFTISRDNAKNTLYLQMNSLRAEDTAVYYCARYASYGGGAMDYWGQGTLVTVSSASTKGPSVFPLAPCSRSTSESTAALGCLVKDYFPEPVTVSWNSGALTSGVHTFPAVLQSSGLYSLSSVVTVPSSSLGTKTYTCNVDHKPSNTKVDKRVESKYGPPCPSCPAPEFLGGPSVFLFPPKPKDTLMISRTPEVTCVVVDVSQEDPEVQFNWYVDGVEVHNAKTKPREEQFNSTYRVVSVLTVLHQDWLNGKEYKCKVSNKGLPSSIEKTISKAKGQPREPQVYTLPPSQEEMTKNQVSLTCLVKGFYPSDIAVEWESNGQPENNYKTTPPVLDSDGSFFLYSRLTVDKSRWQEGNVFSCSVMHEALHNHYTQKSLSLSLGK
light: B1 light
notes: Parent IgG4 kappa antibody with the wild-type hinge; also called Antibody h15A7
